Earlier results in paper PMC8329052.
pKd: −log10 of the molar value.

Target: SARS-CoV-2 spike RBD RBD (SARS-CoV-2) (UniProt P0DTC2)

Substance: SBP1 (ACE2 alpha1 helix 23-mer peptide) 21-43 (from UniProt Q9BYF1)
- pKd: 7.33
